How the values were obtained:
[1] = biological target: light-dependent protochlorophyllide oxidoreductase of Thermosynechococcus elongatus BP-1 (TeLPOR) (Thermosynechococcus elongatus BP-1) (UniProt Q8DLC1); experiment: AUC; sedimentation velocity with multiwavelength absorbance optics (MWA-AUC), 20 °C, 50 krpm, c(s) model in SEDFIT; apoprotein (no NADPH, no Pchlide), 0.615 mg ml^-1 (1.23 mg ml^-1 diluted to half with reaction buffer)
[2] = biological target: light-dependent protochlorophyllide oxidoreductase of Thermosynechococcus elongatus BP-1 (TeLPOR) (Thermosynechococcus elongatus BP-1) (UniProt Q8DLC1); experiment: SAXS; ESRF BM29, 10 °C, 20 mM Tris/HCl pH 7.5, 500 mM NaCl, 20% (v/v) glycerol; apoprotein (no NADPH, no Pchlide), concentration series, apo 2 dataset merged from low and high concentration; dimer content assuming only monomers and dimers

## light-dependent protochlorophyllide oxidoreductase of Thermosynechococcus elongatus BP-1 (TeLPOR) (from UniProt Q8DLC1 1-322) (enzyme)
[1]
  percent dimers (apoprotein, without NADPH and Pchlide): 3.6%
[2]
  dimer content (%) from I(0) (apoprotein, without NADPH and Pchlide): 0%
  dimer content (%) from Vp (apoprotein, without NADPH and Pchlide): 1.7%

From article PMC6761149
